Tested on: cultured PBMCs of the allergic donors
Assay: ELISPOT of IL-5 or IFNg production by cultured PBMCs of TG allergic donors in response to peptide
Format: cell-based, human
Conditions: for NTGA's containing at least one T cell epitope, Th+ (Col 2): NTGA number given = criterion met, TG allergic donors n=20; for No of PG+ & th+ peptides per NTGA / No of PP & Th+ peptides per NTGA: Table 6; for No of PG+ & th+ peptides per NTGA: PG+ peptides recognized by T cells of grass allergic donors (n=20); for No of PP & Th+ peptides per NTGA: PP peptides recognized by T cells of grass allergic donors (n=20); for # Th+: Table 7, peptides per NTGA recognized by T cells of grass allergic donors (n=20); for T cell reactivity of sequences contained in the protein: among top pan-pollen NTGA's ranked by number of PP peptides; for PG+ peptides recognized by grass allergic donors: n=20 grass allergic donors, PG+ peptides of the NTGA
Description: Table 1 indicates for each of the 397 PG+ peptides in which non-grass pollen species a matching peptide with either less than 3, less than 2 or zero mismatches are found. The number of TG grass allergic donors (n=20) with an in vitro T cell response to the TG peptide sequence is also shown.
A set of 93 proteins from Timothy grass (TG) pollen and the assembly of 822 peptides (15 mers) predicted to promiscuously bind HLA class II molecules shown in Table 9 and the immune reactivity in allergic donors have been reported in PCT application WO 2013/119863. […] Immune reactivity was determined by the production of IL-5 or IFNg from cultured PBMCs of the allergic donors in response to stimulation with a peptide and IL-5 and IFNg were measured by ELISPOT as described in Oseroff C et al, 2010.
In short, T cell immune reactivity was determined using PBMCs isolated from study participants and stored in liquid nitrogen until further use. For experimental testing, PBMCs were thawed and expanded in vitro with TG pollen extract (50 μg/mL) or the peptide pool ([…]). The TG extract and peptide pools had each been previously titrated to determine optimal stimulation concentrations.
Cytokine production by cultured PBMCs in response to antigen stimulation was measured by ELISPOT. Cells (1×10^5 cells/well) were plated and incubated with peptide (10 μg/mL), the peptide pool (5 μg/mL), or the TG extract (50 μg/mL). Phytohaemagglutinin (10 μg/mL) and medium alone were used as positive and negative controls, respectively. Samples were considered to produce a cytokine if 100 spot-forming cells (SFCs)/10^6 PBMCs were detected, with P .05 and a stimulation index of 2 or more. Criteria for individual peptides were the same except that a minimum of 20 SFCs were required for a sample to be counted as positive.
Table 3 lists the 397 PG+ peptides and indicates for each non-grass pollen species whether a matching peptide with either less than 3, less than 2 or zero mismatches could be detected. The immune reactivity of the TG peptide was assessed as the number of TG grass allergic donors (n=20) having in vitro T cell response against the TG peptide.

Molecule	immune reactivity (SFC counts in ELISPOT) of highly conserved PG+ peptides derived from the NTGA	NTGA's containing at least one T cell epitope, Th+ (Col 2)	No of PG+ & th+ peptides per NTGA	No of PP & Th+ peptides per NTGA	# Th+	T cell reactivity of sequences contained in the protein	PG+ peptides recognized by grass allergic donors
NTGA 2: Phl p wild type sequence, Table 2 (protein, Phleum Pratense) MASPALISDTDQWKALQAHVGAIHKTHLRDLMADADRCKALTAEFEGVFLDYSRQQATTETVDKLFKLAEAAKLKEKIAKMFNGDKINSTENRSVLHVALRAPRDAVINSDGVNVVPEVWAVIDKIKQFSETFRSGSWVGATGKPLTNVVSVGIGGSFLGPLFVHTALQTDPEAAESAKGRQLRFLANVDPVDVARSIKDLDPETTLVVVVSKTFTTAETMLNARTIKEWIVSSLGPQAVSKHMIAVSTNLKLVKEFGIDPNNAFAFWDWVGGRYSVCSAVGVLPLSLQYGFPIVQRFLEGASSIDNHFRTASFEKNIPVLLGLLSVWNVSFLGYPARAILPYSQALEKLAPHIQQLSMESNGKGVSIDGVPLPYEAGEIDFGEPGTNGQHSFYQLIHQGRVIPCDFIGVIKSQQPVYLKGETSNHDELMSNFFAQPDALASRKTPAPLRSENVSENLIPHKTFKGNRPSLSFLLSSLSAYEIGQLLAIYEHRIAVQGFIWGINSFDQWGVELGKSLASQVRKQLHASRMEGKPVEGFNPSSASLLARYLAVEPSTPYDTTVLPKV	high immune reactivity	2	15	12	5	highly T cell reactive sequences	two
NTGA 7: Phl p wild type sequence, Table 2 (protein, Phleum Pratense) MAFEKIKVANPIVEMGDEMTRVFWQSIKEKLIFPFLDLDIKYYDLGVLHRDATDDKVTVEAAEATLKYNVAIKCATITPDEDRVKEFNLKQMWRSPNGTIRNIINGTVFREPIICKNVPKLVPGWTKPICIGRHAFGDQYRATDAVLKGPGKLRLVFEGKDETVDLEVFNFTGAGGVALAMYNTDESIQGFAEASMAIAYEKKWPLYLSTKNTILKKYDGRFKDIFQAVYEADWKSKYEAAGIWYEHRLIDDMVAYALKSEGGYVWACKNYDGDVQSDFLAQGFGSLGLMTSVLMCPDGKTIEAEAAHGTVTRHFRVHQKGGETSTNSIASIFAWTRGLAHRAKLDDNARLLDFTQKLEDACVGTVESGKMTKDLALLVHGSSKVTRGDYLNTEEFIDAVAAELQSRLAAN	high immune reactivity	7	9	6	4	highly T cell reactive sequences	two
NTGA 24: Phl p wild type sequence, Table 2 (protein, Phleum Pratense) MATKRSVGTLGEADLKGKKVFLRADLNVPLDDAQKITDDTRIRASIPTIKFLLEKGAKVILASHLGRPKGVTPKFSLKPLVPRLSELLGVEVVMANDCIGEEVEKLAAALPEGGVLLLENVRFYKEEEKNDPEFAKKLASVADLYVNDAFGTAHRAHASTEGVTKFLRPSVAGFLMQKELDYLVGAVANPKKPFAAIVGGSKVSSKIGVIESLLAKVDILILGGGMIFTFYKAQGKAVGKSLVEEDKLELATSLIETAKAKGVSLLLPTDVVVADKFAPDAESKTVSADAIPDGWMGLDVGPDSIKTFSEALDTTKTVIWNGPMGVFEFEKFAAGTDAIAKQLADLTGKGVTTIIGGGDSVAAVEKAGLADKMSHISTGGGASLELLEGKPLPGVLALDEA	high immune reactivity	24	11	8	2		two
NTGA 53: Phl p wild type sequence, Table 2 (protein, Phleum Pratense) MDRNPVAKNAGKFMTLAGVLDYAKASNISGILIGIEHAAYLATRGLDVVDAVSNALIKSGYDKETKQQVFIQSEDPPVLSAFKKFPKFNRVFEIEFDIRDVSKPSVVEIKEFANAVKLRRSSAAQVDGFYLTGFNAVVERLRDADIQVHVGVLKNEFMSLAFDYWADPMVEIATDTWSVLADGLVTEFPSTAAAYFRSPCSDIKRNMSYTIKPGEPGALVDMAAYGALPPAPPPAPVLEPADVHRQPLPLCPTEPMFRTFRCRLPPKETGKNAEYTANLAADG		53	3	1	3	highly T cell reactive sequences	
NTGA 27: Phl p wild type sequence, Table 2 (protein, Phleum Pratense) MSAYCGKYKDELIKNAAYIGTPGKGILAADESTGTIGKRFASINVENVEDNRRALRELLFTTPGALQHISGVILFEETLYQSSKAGKPFVDILKENNVLPGIKVDKGTVELAGTDKETTTQGHDDLGKRCAKYYEAGARFAKWRAVLKIGPNEPSQLSIDQNAQGLARYAIICQENGLVPIVEPEILVDGPHDIERCAYVTEVVLAACYKALNDQHVLLEGSLLKPNMVTPGSDAKKVAPEVIAEYTVRTLQRTVPPAVPAIVFLSGGQSEEEATVNLNAMNKLQTKKPWFLSFSFGRALQQSTLKAWSGKEENVEKAQKAFLVRCKANSEATLGTYKGDATLGEGASESLHVKDYKY	high immune reactivity	27	5	4	0		
NTGA 89: Phl p wild type sequence, Table 2 (protein, Phleum Pratense) MSAADKVKPAASPAAEDPAAIAGNISYHAHYSPHFSPLAFGPEPAYFATAESVRDHLLQRWNDTYLHFHKTDPKQTYYLSMEYLQGRALTNAVGNLGITGAYAEAVKKFGYELEALAGQERDMALGNGGLGRLAACFLDSMATLNLPAWGYGLRYRYGLFKQRIAKEGQEEIAEDWLEKFSPWEIVRHDVVYPVRFFGHVEILPDGRRKSAGGEVLNALAYDVPIPGYKTKNAISLRLWDAKASAEDFNLFQFNDGQYESAAQLHSRAQQICAVLYPGDATEEGKLLRLKQQFFLCSASLQDIIFRFKERKSDRVSGKWSEFPSKVAVQMNDTHPTLAIPELMRLLMDEEGLGWDEAWDVTNKTVAYTNHTVLPEALEKWSQSVMRKLLPRQMEIIEEIDKRFREMVISTRKDMEGKLDSMSVLDNSPQKPVVRMANLCVVSAHTVNGVAELHSNILKEELFADYVSIWPKKFQNKTNGITPRRWLRFCNPELSEIVTKWLKTDQWTSNLDLLTGLRKFADDEKLHAEWAAAKLASKKRLAKHVLDATGVTIDPTSLFDIQIKRIHEYKRQLMNILGAVYRYKKLKEMSAEEKQKVTPRTVMVGGKAFATYTNAKRIVKLVNDVGAVVNNDPDVNKYLKVVFIPNYNVSVAEVLIPGSELSQHISTAGMEASGTSNMKFSLNGCVIIGTLDGANVEIREEVGEDNFFLFGAKADQVAGLRKDRENGLFKPDPRFEEAKQYIRSGTFGTYDYTPLLDSLEGNSGFGRGDYFLVGYDFPSYIDAQARVDEAYKDKKRWIKMSILNTAGSGKFSSDRTIDQYAKEIWGITANPVP		89	13	0	4		two
NTGA 1: Phl p (Timothy grass pollen) wild type sequence, Table 2 (protein, Phleum Pratense) MAATIQSVKARQIFDSRGNPTVEVDVCCSDGTFARAAVPSGASTGVYEALELRDGGSDYLGKGVLKAVDNVNSIIGPALIGKDPTEQTELDNFMVHQLDGTKNEWGWCKQKLGANAILAVSLAVCKAGALVKKIPLYQHIANLAGNKQLVLPVPAFNVINGGSHAGNKLAMQEFMILPTGASSFKEAMKMGVEVYHNLKSVIKKKYGQDATNVGDEGGFAPNIQENKEGLELLKTAIEKAGYTGKVVIGMDVAASEFYGEKDQTYDLNFKEENNDGSQKISGDSLKNVYKSFVSEYPIVSIEDPFDQDDWVHYAKMTEEIGEQVQIVGDDLLVTNPTRVAKAIAEKSCNALLLKVNQIGSVTESIEAVKMSKRAGWGVMTSHRSGETEDTFIADLAVGLSTGQIKTGAPCRSERLAKYNQLLRIEEELGAAAVYAGLKFRAPVEPY		1	5	4	0		
